Experimental data taken from publication PMC11419269 (Research Square, 2024).

T1: Human IL-34 (19–241) (human, UniProt Q6ZMJ4 19-241)
T1 construct: IL-34, human, residues 19-241, cloned into pHLsec; the oligomeric state was not measured here; source: Expi293F cells, secreted, purified from the media using NiNTA chromatography
T1 sequence (looked up): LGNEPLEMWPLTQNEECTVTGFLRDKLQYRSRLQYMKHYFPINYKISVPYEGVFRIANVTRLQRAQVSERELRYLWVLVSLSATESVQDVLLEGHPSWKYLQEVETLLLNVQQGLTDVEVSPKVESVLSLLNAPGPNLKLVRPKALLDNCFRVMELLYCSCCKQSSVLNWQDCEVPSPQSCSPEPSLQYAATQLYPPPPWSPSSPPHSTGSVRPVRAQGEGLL


biological target: T2, complement C1q; assay: BLI; biotinylated TREM2 WT and variants immobilised on SA biosensors; C1q 62.5 – 1000 nM in PBS with 0.1% BSA and 0.005% Tween-20; 1:1 kinetic fits; details: both partners purified
T2 construct: source: bought: Complement Technology (Cat#A099); copies: 6 + 6 + 6

Row | Kd | Binder
1 | 13800 ± 4860 nM | TREM2 R76D (receptor, biotin on the C-terminal BirA biotinylation sequence) HNTTVFQGVAGQSLQVSCPYDSMKHWGRRKAWCRQLGEKGPCQRVVSTHNLWLLSFLDRWNGSTAITDDTLGGTLTITLRNLQPHDAGLYQCQSLHGSEADTLRKVLVEVLADPLD
2 | 110 ± 10 nM | TREM2 T85D (receptor, biotin on the C-terminal BirA biotinylation sequence) HNTTVFQGVAGQSLQVSCPYDSMKHWGRRKAWCRQLGEKGPCQRVVSTHNLWLLSFLRRWNGSTAIDDDTLGGTLTITLRNLQPHDAGLYQCQSLHGSEADTLRKVLVEVLADPLD
3 | 110 ± 10 nM | TREM2 L75D (receptor, biotin on the C-terminal BirA biotinylation sequence) HNTTVFQGVAGQSLQVSCPYDSMKHWGRRKAWCRQLGEKGPCQRVVSTHNLWLLSFDRRWNGSTAITDDTLGGTLTITLRNLQPHDAGLYQCQSLHGSEADTLRKVLVEVLADPLD
4 | 820 ± 40 nM | TREM2 R122D/K123D (receptor, biotin on the C-terminal BirA biotinylation sequence) HNTTVFQGVAGQSLQVSCPYDSMKHWGRRKAWCRQLGEKGPCQRVVSTHNLWLLSFLRRWNGSTAITDDTLGGTLTITLRNLQPHDAGLYQCQSLHGSEADTLDDVLVEVLADPLD

biological target: T1, Human IL-34 (19–241); assay: BLI; biotinylated TREM2 WT and variants immobilised on SA biosensors; IL-34 62.5 – 1000 nM in PBS with 0.1% BSA and 0.005% Tween-20; 1:1 kinetic fits; details: both partners purified

Row | Kd | Binder
5 | 16.5 ± 0.2 nM | TREM2 WT (receptor, human, UniProt Q9NZC2 19-230, looked up, biotin on the C-terminal BirA biotinylation sequence, TREM2, human; also called triggering receptor expressed on myeloid cells-2; source: Expi293F cells, purified, enzymatically biotinylated using BirA) HNTTVFQGVAGQSLQVSCPYDSMKHWGRRKAWCRQLGEKGPCQRVVSTHNLWLLSFLRRWNGSTAITDDTLGGTLTITLRNLQPHDAGLYQCQSLHGSEADTLRKVLVEVLADPLDHRDAGDLWFPGESESFEDAHVEHSISRSLLEGEIPFPPTS
6 | 23.7 ± 0.4 nM | TREM2 T96K (receptor, human, UniProt Q9NZC2 19-230, looked up, biotin on the C-terminal BirA biotinylation sequence, TREM2, human, AD risk variant; As m1 with the substitution; source: Expi293F cells, purified, enzymatically biotinylated using BirA) HNTTVFQGVAGQSLQVSCPYDSMKHWGRRKAWCRQLGEKGPCQRVVSTHNLWLLSFLRRWNGSTAITDDTLGGTLTIKLRNLQPHDAGLYQCQSLHGSEADTLRKVLVEVLADPLDHRDAGDLWFPGESESFEDAHVEHSISRSLLEGEIPFPPTS
7 | 79.8 ± 2.4 nM | TREM2 R47H (receptor, human, UniProt Q9NZC2 19-230, looked up, biotin on the C-terminal BirA biotinylation sequence, TREM2, human, AD risk variant; As m1 with the substitution; source: Expi293F cells, purified, enzymatically biotinylated using BirA) HNTTVFQGVAGQSLQVSCPYDSMKHWGRHKAWCRQLGEKGPCQRVVSTHNLWLLSFLRRWNGSTAITDDTLGGTLTITLRNLQPHDAGLYQCQSLHGSEADTLRKVLVEVLADPLDHRDAGDLWFPGESESFEDAHVEHSISRSLLEGEIPFPPTS
8 | 28.4 ± 0.5 nM | TREM2 D87N (receptor, human, UniProt Q9NZC2 19-230, looked up, biotin on the C-terminal BirA biotinylation sequence, TREM2, human, AD risk variant; As m1 with the substitution; source: Expi293F cells, purified, enzymatically biotinylated using BirA) HNTTVFQGVAGQSLQVSCPYDSMKHWGRRKAWCRQLGEKGPCQRVVSTHNLWLLSFLRRWNGSTAITDNTLGGTLTITLRNLQPHDAGLYQCQSLHGSEADTLRKVLVEVLADPLDHRDAGDLWFPGESESFEDAHVEHSISRSLLEGEIPFPPTS
9 | 75 nM | TREM2 R62H (receptor, human, UniProt Q9NZC2 19-230, looked up, biotin on the C-terminal BirA biotinylation sequence, TREM2, human, AD risk variant; As m1 with the substitution; source: Expi293F cells, purified, enzymatically biotinylated using BirA) HNTTVFQGVAGQSLQVSCPYDSMKHWGRRKAWCRQLGEKGPCQHVVSTHNLWLLSFLRRWNGSTAITDDTLGGTLTITLRNLQPHDAGLYQCQSLHGSEADTLRKVLVEVLADPLDHRDAGDLWFPGESESFEDAHVEHSISRSLLEGEIPFPPTS
10 | 29.4 ± 0.4 nM | TREM2 R122E (receptor, biotin on the C-terminal BirA biotinylation sequence) HNTTVFQGVAGQSLQVSCPYDSMKHWGRRKAWCRQLGEKGPCQRVVSTHNLWLLSFLRRWNGSTAITDDTLGGTLTITLRNLQPHDAGLYQCQSLHGSEADTLEKVLVEVLADPLD
11 | 20.2 ± 0.3 nM | TREM2 L69D/L71D (receptor, biotin on the C-terminal BirA biotinylation sequence) HNTTVFQGVAGQSLQVSCPYDSMKHWGRRKAWCRQLGEKGPCQRVVSTHNDWDLSFLRRWNGSTAITDDTLGGTLTITLRNLQPHDAGLYQCQSLHGSEADTLRKVLVEVLADPLD
12 | 21.5 ± 0.6 nM | TREM2 T85D (receptor, biotin on the C-terminal BirA biotinylation sequence) HNTTVFQGVAGQSLQVSCPYDSMKHWGRRKAWCRQLGEKGPCQRVVSTHNLWLLSFLRRWNGSTAIDDDTLGGTLTITLRNLQPHDAGLYQCQSLHGSEADTLRKVLVEVLADPLD
13 | 18 ± 0.3 nM | TREM2 R46D (receptor, biotin on the C-terminal BirA biotinylation sequence) HNTTVFQGVAGQSLQVSCPYDSMKHWGDRKAWCRQLGEKGPCQRVVSTHNLWLLSFLRRWNGSTAITDDTLGGTLTITLRNLQPHDAGLYQCQSLHGSEADTLRKVLVEVLADPLD
14 | 25.8 ± 0.3 nM | TREM2 W44D/L69D/L71D (receptor, biotin on the C-terminal BirA biotinylation sequence) HNTTVFQGVAGQSLQVSCPYDSMKHDGRRKAWCRQLGEKGPCQRVVSTHNDWDLSFLRRWNGSTAITDDTLGGTLTITLRNLQPHDAGLYQCQSLHGSEADTLRKVLVEVLADPLD
15 | 17.2 ± 0.4 nM | TREM2 W78D (receptor, biotin on the C-terminal BirA biotinylation sequence) HNTTVFQGVAGQSLQVSCPYDSMKHWGRRKAWCRQLGEKGPCQRVVSTHNLWLLSFLRRDNGSTAITDDTLGGTLTITLRNLQPHDAGLYQCQSLHGSEADTLRKVLVEVLADPLD
16 | 36.6 ± 0.9 nM | TREM2 L75D (receptor, biotin on the C-terminal BirA biotinylation sequence) HNTTVFQGVAGQSLQVSCPYDSMKHWGRRKAWCRQLGEKGPCQRVVSTHNLWLLSFDRRWNGSTAITDDTLGGTLTITLRNLQPHDAGLYQCQSLHGSEADTLRKVLVEVLADPLD
17 | 114 ± 4 nM | TREM2 R77D (receptor, biotin on the C-terminal BirA biotinylation sequence) HNTTVFQGVAGQSLQVSCPYDSMKHWGRRKAWCRQLGEKGPCQRVVSTHNLWLLSFLRDWNGSTAITDDTLGGTLTITLRNLQPHDAGLYQCQSLHGSEADTLRKVLVEVLADPLD
18 | 18.5 ± 0.3 nM | TREM2 R122D/K123D (receptor, biotin on the C-terminal BirA biotinylation sequence) HNTTVFQGVAGQSLQVSCPYDSMKHWGRRKAWCRQLGEKGPCQRVVSTHNLWLLSFLRRWNGSTAITDDTLGGTLTITLRNLQPHDAGLYQCQSLHGSEADTLDDVLVEVLADPLD
